Earlier results, collected in US20190010499.

Tested on: IL-6
Conditions: binding constant used for modeling; measurement method not stated; nucleic acid type not stated; cited from earlier work

| Substance | Kd [nM] |
| --- | --- |
| Anti-IL-6 aptamer #1 (SL1025) | 0.233 |
| Anti-IL-6 aptamer #2 (SL1032) | 1.6 |
